Measurements reported in patent publication US20240175877A1.

Target: Ara h 2 (peanut) (UniProt Q6PSU2)
Experiment: SPR, Biacore 3000

Ara h 2 (peanut), sequence (Q6PSU2 23-172): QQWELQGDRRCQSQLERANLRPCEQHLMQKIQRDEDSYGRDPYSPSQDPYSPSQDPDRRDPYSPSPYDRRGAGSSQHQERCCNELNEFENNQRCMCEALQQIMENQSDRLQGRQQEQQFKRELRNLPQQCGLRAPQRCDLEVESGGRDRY

Kd: 4.85 nM
B1: 13BU2T1 (antibody, IgG1, V domains shown)
VH: VESGGGVVQPGASLRLSCVASGFTFRDYSMHWVRQAPGKGLEWMSFIRFDGTTKDYRESVKGRFIISRDDSKNTLYLQMTSLRPEDTARYYCVKDNGWRAFDHWGQGALVIVSS
VL: EIVMTQSPLSLPVTPGEAASISCRSSQSLLHRNGYIYLDWYLQRPGQSPQLLISFVSKRASGAPDRFSGSGSGTDFTLTISRVEAEDFGVYFCMQSLENPWTFGP
